1 protein from PMC5838249, “The Apicomplexa-specific glucosamine-6-phosphate N-acetyltransferase gene family encodes a key enzyme for glycoconjugate synthesis with potential as therapeutic target” (Scientific Reports, 2018) can be followed below.

Substrate in the series: CC(=O)SCCNC(=O)CCNC(=O)[C@H](O)C(C)(C)COP(=O)(O)OP(=O)(O)OC[C@H]1O[C@@H](n2cnc3c(N)ncnc32)[C@H](O)[C@@H]1OP(=O)(O)O
The series is described as follows: GNA1 kinetic assay, Michaelis-Menten. It is filed as biochemical, Cryptosporidium parvum. The settings on record: co-substrate GlcN-6P.

B1: CpGNA1 (Cryptosporidium parvum Iowa II) (protein)
chain: MISSFEVRKATIDDYFELRNLICDVTRCTETLSREQAEERFRYNTYHPYCLVDTENGRIVGYAGFYIIPHLGRKNDSRIEHVIISKEYRNRGLGRLLCKQIIEDAKNKFNCGRIDLTVESHIAKKLYSSLEFEKVNTEVMRNSFLDLTPKSD
For orientation: Km means the substrate concentration at which the rate is half of its maximum. B1: the Km was found to be 241.7 ± 35.3 µM.
